Experimental findings from patent US20090324579A1 (UNIVERSITY OF WINDSOR, published 2009) are described below.

For the assay, the target named is T1, BSA (UniProt P02769 25-607).
T1 construct: also called control BSA antigen; control antigen
Kind of assay: phage ELISA. In general terms: In an ELISA, binding on a coated surface is turned into a signal by an enzyme label.

T1 sequence (P02769 25-607 limits assumed): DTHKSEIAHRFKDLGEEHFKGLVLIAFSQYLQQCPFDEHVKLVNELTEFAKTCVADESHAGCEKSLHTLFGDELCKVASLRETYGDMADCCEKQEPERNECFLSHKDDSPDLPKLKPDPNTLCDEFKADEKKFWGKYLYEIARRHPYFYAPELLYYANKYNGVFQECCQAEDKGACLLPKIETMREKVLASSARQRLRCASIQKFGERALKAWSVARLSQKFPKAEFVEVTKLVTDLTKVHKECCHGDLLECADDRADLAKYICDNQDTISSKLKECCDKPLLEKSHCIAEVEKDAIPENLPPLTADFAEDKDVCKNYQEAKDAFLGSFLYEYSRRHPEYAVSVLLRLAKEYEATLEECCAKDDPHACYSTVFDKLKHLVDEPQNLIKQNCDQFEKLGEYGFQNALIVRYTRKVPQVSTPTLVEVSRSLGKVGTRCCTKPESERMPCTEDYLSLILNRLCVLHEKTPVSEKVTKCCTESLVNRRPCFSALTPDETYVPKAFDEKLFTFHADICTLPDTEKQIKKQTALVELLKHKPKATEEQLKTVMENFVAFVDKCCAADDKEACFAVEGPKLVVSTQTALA

B1: Casp2 VHH displayed on phage (VHH)
VHH: DVQLQASGGGLVQAGGSLRLSCAASTNIFRDKFMAWYRQAPGKQRELVASITTGGRTDYADSVKGRFTISRDNTKDTMYLQMNSLKPEDTAVYYCAGFLGRTYWGQGTQVTVSS
notes: also called Casp2 sdAb
As for B1, the binding result was “no binding”.

B2: Casp1 VHH displayed on phage (VHH)
VHH: DVQLQASGGGLVQPGGSLRLSCAASGSLSRITVMGWYRQAPGKQRELVAIITSSGGTNYADSVKGRFTISRDNAKNTVYLQMNSLKPEDTAVYYCLAARGYDRYWGRGTQVTVSS
notes: also called Casp1 sdAb
On to B2, for which the binding result is “no binding”.
